Source: patent US20200407445A1 (ITEOS THERAPEUTICS, published 2020)
Each block holds one binder with its values, some of them ahead of it.

Legend:
[1] = target: T1, human TIGIT expressed on cells (human, UniProt Q495A1 22-244); assay: flow cytometry, cell binding Jurkat human TIGIT
T1 construct: whole, on cells; on Jurkat E6.1 cells transduced with human TIGIT, on Promega TIGIT Effector cells or on human primary T cells; the assay field says which; also called hTIGIT; Jurkat-hTIGIT
T1 sequence (looked up): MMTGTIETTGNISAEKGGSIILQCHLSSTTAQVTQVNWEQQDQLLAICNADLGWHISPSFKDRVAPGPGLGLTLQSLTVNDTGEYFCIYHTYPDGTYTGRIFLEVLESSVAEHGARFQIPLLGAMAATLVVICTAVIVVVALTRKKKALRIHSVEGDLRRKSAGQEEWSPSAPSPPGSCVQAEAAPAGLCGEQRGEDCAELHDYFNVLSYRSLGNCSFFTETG

[2] = target: T1, human TIGIT expressed on cells; assay: flow cytometry, AF647-32959 on Jurkat-hTIGIT; competitor 31282 at 0 nM
Protocol: (§1) Geometric mean fluorescence intensity was analysed using LSR BD Fortessa. Cell binding was recorded as the median florescence intensity of AF647.

[3] = target: T1, human TIGIT expressed on cells; assay: flow cytometry, AF647-32959 on Jurkat-hTIGIT; competitor 31282 at 8 nM
Protocol: as §1

[4] = target: T1, human TIGIT expressed on cells; assay: flow cytometry, AF647-32959 on Jurkat-hTIGIT; competitor 31282 at 0.8 nM
Protocol: as §1

[5] = target: T1, human TIGIT expressed on cells; assay: flow cytometry, AF647-32959 on Jurkat-hTIGIT; competitor 31282 at 0.08 nM
Protocol: as §1

[6] = target: T1, human TIGIT expressed on cells; assay: flow cytometry, AF647-32959 on Jurkat-hTIGIT; competitor 31282 at 0.16 nM
Protocol: as §1

[7] = target: T1, human TIGIT expressed on cells; assay: cell-based or functional assay
[8] = target: T1, human TIGIT expressed on cells; assay: cell-based or functional assay; remark: listed apart in the source
[9] = target: T1, human TIGIT expressed on cells; assay: flow cytometry on Jurkat-hTIGIT
Protocol: (§2) Antibodies were incubated with the cells for 20 min at 4° C. in FACS buffer. […] Fluorescence intensity was analysed using LSR BD Fortessa and cell binding was recorded as the median fluorescence intensity of PE in cells expressing TIGIT at their surface.
(§3) The half-maximal concentration of binding (EC50) to Jurkat-hTIGIT was calculated using a four-variable curve-fit equation in Prism.

[10] = target: T1, human TIGIT expressed on cells; assay: flow cytometry on Jurkat-hTIGIT; remark: listed apart in the source
Protocol: as §2, §3

[11] = target: T1, human TIGIT expressed on cells; assay: flow cytometry, primary CD8+ T cells of healthy human PBMC, MFI
Protocol: Isolated human PBMCs from healthy volunteers were analysed for binding by antagonist anti-TIGIT antibodies. Cells were distributed at 1×10⁵ cells per well. Cells were incubated with anti-CD16 (Clone 3G8, BioLegend 302002), CD32 (Clone FLI8.26, BD Bioscience 557333) and CD64 (BD Bioscience 555525) at room temperature for 10 min, and the indicated anti-human TIGIT antibody clones were directly added at a final concentration of 8; 4; 2; 1; 0.5; 0.25; 0.125; 0.062; 0.031; 0.016; 8×10⁻³ and 4×10⁻³ nM in FACS buffer and incubated for 20 min at 4° C. […] Then, cells were washed and incubated with the following antibodies and LVD mix: anti-CD4-PercP-Cy5.5 (clone A161A1, BioLegend 357414); anti-CD8-BV510 (clone SK1, BD Bioscience 563919) and LVD efluor 660 (eBioscience 65-0864-18).
The EC50 values for binding to CD8+ human primary T cells were calculated using the MFI signal on living TIGIT+CD8+ T cells.

[12] = target: T1, human TIGIT expressed on cells; assay: flow cytometry, primary CD8+ T cells of cancer patients' PBMC, MFI
Protocol: Cells were distributed at 1×10^5 cells per well. […] Then, cells were washed and incubated with the following antibodies and life viability dye (LVD) mix: anti-CD4-PercP-Cy5.5 (clone A161A1, BioLegend 357414); anti-CD8-BV510 (clone SK1, BD Bioscience 563919) and LVD efluor 520 (eBioscience 65-0867-14). Cells were washed and fixed and surface staining was quantified using BD LSR Fortessa. Flow cytometry data was analysed using FlowJo V10.1. TIGIT MFI on gated LVD-TIGIT+CD8+ cells was used to calculate EC50 values.

[13] = target: T1, human TIGIT expressed on cells; assay: flow cytometry, competition with CD155-His (15 ug/ml) on Jurkat-hTIGIT
[14] = target: T2, recombinant human TIGIT protein (construct not stated) (human, UniProt Q495A1 22-141, limits assumed); assay: Biacore T200, IgG captured by anti-human Fc, antigen in solution, 1:1 kinetic model
T2 construct: also called hTIGIT (Creative Biomart); recombinant TIGIT protein
T2 sequence (looked up): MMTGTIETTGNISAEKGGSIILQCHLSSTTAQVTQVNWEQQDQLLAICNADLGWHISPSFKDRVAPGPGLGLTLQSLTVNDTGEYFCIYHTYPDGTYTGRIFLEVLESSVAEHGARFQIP
Protocol: (§4) Biosensor analysis was conducted at 25° C. in a HBS-EP buffer system (10 mM HEPES pH 7.3, 150 mM NaCl, 3 mM EDTA, 0.05% Tween20) using Biacore T200 technology, CMS sensor chip (run at Novalix, France). The sample hotel was maintained at 8° C. Goat anti-human IgG capture antibody (Fcγ fragment specific, Jackson ImmunoResearch Laboratories) was immobilized (10000 RU) to both flow cells of the sensor chip using standard amine coupling chemistry. This surface type provided a format for reproducibly capturing fresh analysis antibody after each regeneration step. Flow cell 2 was used to analyse captured antibody while flow cell 1 was used as a reference flow cell. […] Two blank (buffer) injections also were run and used to assess and subtract system artefacts. The association (300 s) and dissociation (600 s) phases for all antigen concentrations were performed at a flow rate of 30 uL/min. The surface was regenerated with three sequential injections (15 s, 15 s and 60 s) of 10 mM glycine-HCl, pH 1.5. The obtained sensorgrams were fitted globally to a 1:1 model (assuming the same kinetic values for all applied concentrations).

[15] = target: T3, mouse TIGIT expressed on cells (mouse, UniProt P86176 29-249); assay: cell-based or functional assay
T3 sequence (looked up): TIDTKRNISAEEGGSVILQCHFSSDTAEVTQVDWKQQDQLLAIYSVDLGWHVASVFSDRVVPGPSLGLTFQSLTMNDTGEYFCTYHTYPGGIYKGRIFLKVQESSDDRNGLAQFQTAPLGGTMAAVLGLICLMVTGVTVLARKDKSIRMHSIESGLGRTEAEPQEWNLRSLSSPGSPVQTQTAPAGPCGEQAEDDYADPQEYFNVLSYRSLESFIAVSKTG

[16] = target: T1, human TIGIT expressed on cells; assay: cell-based or functional assay; remark: listed apart in the source
[17] = target: T4, Human TIGIT-Fc (human, UniProt Q495A1 22-141); assay: ForteBio BLI, IgG KD, avid
T4 construct: bought (Creative Biomart); also called TIGIT-Fc antigen; TIGIT-Fc fusion antigen; not shown: Fc part
T4 sequence (looked up): T2 sequence (looked up)
Protocol: Briefly, ForteBio affinity measurements were performed by loading IgGs on-line onto AHQ sensors. Sensors were equilibrated off-line in assay buffer for 30 min and then monitored on-line for 60 seconds for baseline establishment. Sensors with loaded IgGs were exposed to 100 nM antigen (human TIGIT-Fc, human TIGIT-His or cyno TIGIT-Fc) for 5 minutes, afterwards they were transferred to assay buffer for 5 min for off-rate measurement. Kinetics were analyzed using the 1:1 binding model.

[18] = target: T1, human TIGIT expressed on cells; assay: flow cytometry, 100 nM Ab, Jurkat-hTIGIT vs untransfected
Protocol: (§5) Antibodies were incubated with the cells for 20 min at 4° C. in FACS buffer. […] Geometric mean fluorecence intensity was analysed using LSR BD Fortessa. Cell binding was recorded as the median florescence intensity of PE on the transfected line compared to the un-transfected line for each antibody (Table 3).

[19] = target: T3, mouse TIGIT expressed on cells; assay: flow cytometry, 100 nM Ab, Jurkat-mTIGIT vs untransfected
Protocol: as §5

[20] = target: T3, mouse TIGIT expressed on cells; assay: flow cytometry, competition with mouse CD155-His-Fc (4 ug/ml) on Jurkat-mTIGIT, FIG. 15A
Protocol: Cells were washed once, and stained with PE-anti-His antibody (Biolegend, 362603) during 30 min at 4° C.

[21] = target: T2, recombinant human TIGIT protein …; assay: Biacore T200, IgG captured by anti-human Fc, antigen in solution, steady state model
Protocol: as §4, with “The obtained sensorgrams were fitted globally to a 1:1 model (assuming the same kinetic values for all applied concentrations).” left out

B2: 4.1D3.Q1E (comparative anti-TIGIT antibody, human IgG1) (antibody, V domains shown)
VH: EVQLQQSGPGLVKPSQTLSLTCAISGDSVSSNSAAWNWIRQSPSRGLEWLGKTYYRFKWYSDYAVSVKGRITINPDTSKNQFSLQLNSVTPEDTAVFYCTRESTTYDLLAGPFDYWGQGTLVTVSS
VL: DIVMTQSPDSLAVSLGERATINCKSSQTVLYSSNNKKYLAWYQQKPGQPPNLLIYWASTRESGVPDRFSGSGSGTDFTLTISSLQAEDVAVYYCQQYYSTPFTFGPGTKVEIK
notes: from WO2017/053748; made in HEK cells as human IgG1
EC50 (nM), luciferase, Jurkat-hTIGIT [7]: 10.3 nM | Fold change of EC50 over EC50 of best clone (31282_up) [7]: 3.1 fold | Induction over Isotype control (fold change), luciferase, Jurkat-hTIGIT + CD155 aAPC/CHO-K1 [7]: 5.8 fold | EC50 (nM), IFNg, human primary CD8+ T cells [8]: 1.43 nM | Fold change of EC50 over EC50 of best clone (31282_wu) [8]: 10.8 fold | Induction over isotype control (fold change), IFNg, human primary CD8+ T cells + CD155 aAPC/CHO-K1 [8]: 2.9 fold | EC50 [9]: 267 pM | EC50 [10]: 270 pM | Fold change of EC50 over EC50 of best clone (31282_wu) [10]: 2.5 fold | EC50 [11]: 1880 pM | Fold change of EC50 over EC50 of best clone (31282_wu) [11]: 9.7 fold | EC50 [12]: 1150 pM | Fold change of EC50 over EC50 of best clone (31282) [12]: 9.5 fold | Fold change of IC50 over IC50 of best clone (31282_up) [13]: 1.9 fold | IC50 [13]: 70 pM | Kd [14]: 44 pM | koff [14]: 4.72e-05 s⁻¹

B4: 313M32 (comparative anti-TIGIT antibody, human IgG1) (antibody, V domains shown)
VH: QVQLQESGPGLVKPSETLSLTCAVSGYSITSDYAWNWIRQPPGKGLEWIGYISYSGSTSYNPSLRSRVTISRDTSKNQFFLKLSSVTAADTAVYYCARRQVGLGFAYWGQGTLVTVSS
VL: DIQMTQSPSSLSASVGDRVTITCKASQDVSTAVAWYQQKPGKAPKLLIYSASYRYTGVPSRFSGSGSGTDFTFTISSLQPEDIATYYCQQHYSTPWTFG
notes: from WO2016/191643; made in HEK cells as human IgG1; the VL as printed ends at ...TFG (FR4 not complete); also called 313M2
EC50 [9]: 445 pM | EC50 [10]: 440 pM | Fold change of EC50 over EC50 of best clone (31282_wu) [10]: 4.2 fold | EC50 [11]: 1450 pM | Fold change of EC50 over EC50 of best clone (31282_wu) [11]: 7.5 fold | EC50 [12]: 1000 pM | Fold change of EC50 over EC50 of best clone (31282) [12]: 8.3 fold | Fold change of IC50 over IC50 of best clone (31282_up) [13]: 16.7 fold | IC50 [13]: 650 pM | Kd [21]: 10100 pM

Further lines, results first:

FON (Fold Over Negative) [1]: 588 fold | EC50 [2]: 220 pM | EC50 [3]: 390 pM | EC50 [4]: 490 pM | EC50 [5]: 330 pM | EC50 [6]: 370 pM
B1: anti-TIGIT antibody clone 32959 (human IgG1) (antibody, V domains shown)
VH: QVQLVQSGAEVKKPGSSVKVSCKASGGTFSSYLISWVRQAPGQGLEWMGGIYPIFATANYAQKFQGRVTITADESTSTAYMELSSLRSEDTAVYYCAREAQSYRVPFDIWGQGTMVTVSS
VL: EIVMTQSPATLSVSPGERATLSCRASQSVSSNLAWYQQKPGQAPRLLIYGASTRATGIPARFSGSGSGTEFTLTISSLQSEDFAVYYCQQYAIWPPFTFGGGTKVEIK
modifications: The antibody was directly coupled to the dye AF647 in Example 24; the attachment sites are not stated.
notes: human IgG1 made in HEK cells

IFNg production by mouse OT-I CD8+ T cells co-cultured with OVA-pulsed PanO2 cells (express CD155), 133 nM [15]: ~2 fold | Induction over Isotype control (fold change), luciferase, Jurkat-hTIGIT + CHO-TCR-CD155, 133 nM [16]: 0.96 fold | Kd [17]: 1490 pM | FON (Fold Over Negative) [18]: 80 fold | FON (Fold Over Negative) [19]: 463 fold | IC50 [20]: 2300 pM
B3: anti-TIGIT antibody clone 26493 (IgG) (antibody, V domains shown)
VH: EVQLVESGGGLVQPGRSLRLSCAASGFTFGDYAMHWVRQAPGKGLEWVSGITWNSGSIGYADSVKGRFTISRDNAKNSLYLQMNSLRAEDTALYYCAKPVPKSRGLDVWGQGTMVTVSS
VL: DIQLTQSPSSVSASVGDRVTITCRASQGISSWLAWYQQKPGKAPKLLIYGASSLQSGVPSRFSGSGSGTDFTLTISSLQPEDFATYYCQQAFYLPWTFGGGTKVEIK
notes: parent clone; also called surrogate anti-TIGIT antagonistic antibody
